We go through two molecules from patent publication US7432419B2 (priority 2004, dated 2008).

Test [1] concerns Xylella fastidiosa (Xf strain "Stags Leap"). The class given is cell-based.
Another test concerns E. coli strain HB 101. Format: cell-based.
Test [2] relates to Xf outer-membrane protein mopB. Format: biochemical, Xylella fastidiosa.

Regarding Cecropin B [reference compound], the “bacterial growth inhibition (killing) of Xf” value in test [1] was “some growth inhibition”. In addition, in the test with E. coli strain HB 101, the “bacterial growth inhibition (killing) of E. coli” value was “complete growth inhibition”.

B1: Elastase: Human Neutrophil Elastase (Sigma), used as surface recognition domain component (protein, listed as Homo sapiens)
chain: EIVGGRRARPHAWPFMVSLQLRGGHFCGATLIAPNFVMSAAHCVANVNVRAVRVVLGAHNLSRREPTRQVFAVQRIFENGYDPVNLLNDIVILQLNGSATINANVQVAQLPAQGRRLGNGVQCLAMGWGLLGRNRGIASVLQELNVTVVTSLCRRSNVCTLVRGRQAGVCFGDSGSPLVCNGLIHGIASFVRGGCASGLYPDAFAPVAQFVNWIDSIIQ
modifications: truncated neutrophil elastase protein
notes: Human Neutrophil Elastase (Sigma), used as surface recognition domain component
Turning to B1, in test [1], the “bacterial growth inhibition (killing) of Xf” value is recorded as “insufficient to inhibit bacterial growth” and the “effect of elastase on Cecropin B-stimulated lysis of Xf cells” value was “greatly enhances”. Further, in test [2], the “digestion of purified mopB” value is given as “at least partially digested”. The “bacterial growth inhibition (killing) of E. coli” value in the test on E. coli strain HB 101 is on record as “insufficient to inhibit bacterial growth”.
